The target in the assay is Pyruvate kinase M2 (PKM2) (human (endogenous in HCT116 and RKO)) (UniProt P14618). The assay is described as follows: cross-linking.

Pyruvate kinase M2 (PKM2), P14618 1-531 (natural protein; other documents disagree on this pair), sequence (P14618 whole entry): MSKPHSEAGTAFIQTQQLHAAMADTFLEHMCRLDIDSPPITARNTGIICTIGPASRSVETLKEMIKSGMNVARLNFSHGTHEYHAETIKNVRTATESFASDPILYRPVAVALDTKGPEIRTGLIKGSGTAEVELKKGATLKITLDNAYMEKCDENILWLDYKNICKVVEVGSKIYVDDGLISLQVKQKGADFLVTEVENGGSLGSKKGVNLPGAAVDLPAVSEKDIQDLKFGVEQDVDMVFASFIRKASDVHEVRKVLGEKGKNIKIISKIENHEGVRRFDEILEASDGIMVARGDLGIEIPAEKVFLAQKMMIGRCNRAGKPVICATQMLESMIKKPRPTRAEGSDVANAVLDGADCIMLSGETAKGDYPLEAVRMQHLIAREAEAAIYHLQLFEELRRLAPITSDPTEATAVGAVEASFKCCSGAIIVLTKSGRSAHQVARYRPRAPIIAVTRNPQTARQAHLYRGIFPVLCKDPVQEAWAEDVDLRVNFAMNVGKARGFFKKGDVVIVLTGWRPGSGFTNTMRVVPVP

“Pyruvate kinase M2 (PKM2), P14618 1-531 (natural protein; other documents disagree on this pair)”: the stoichiometry N (as a rule, the number of molecules, sites or subunits per partner or assembly) was determined as 2.

The record behind these values is article PMC11686999.
